# Assay results: US5635597A (Affymax Technologies, N.V., priority 1994, dated 1997)
# Where a SMILES comes first, the peptide text is derived from it.
# Assays:
# immobilized IL-2Rβ = molecular target: T1, immobilized IL-2Rβ (Homo sapiens, UniProt P14784); test: pVIII 12-mer phage screen against immobilized IL-2Rβ; assay type: binding; details: pVIII-bound 12-mers
# T1 construct: was produced in recombinant host cells in a truncated form; made in house; host or cells: recombinant host cells (baculovirus system or PIG-tailed CHO cells named as options)
# T1 sequence (P14784 27-240 limits assumed): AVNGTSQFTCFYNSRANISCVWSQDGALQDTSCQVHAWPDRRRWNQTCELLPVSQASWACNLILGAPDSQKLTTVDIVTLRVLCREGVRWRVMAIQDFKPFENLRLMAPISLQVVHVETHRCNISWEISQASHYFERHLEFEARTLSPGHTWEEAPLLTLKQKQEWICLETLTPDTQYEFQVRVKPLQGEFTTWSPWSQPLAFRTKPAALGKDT
# Excerpt: (§1) In the systems employed, the random peptides were presented either on the surface of a phage particle, as part of a fusion protein comprising either the pIII or the pVIII coat protein of a phage fd derivative (peptides on phage), or as a fusion protein with LacI bound to a plasmid (peptides on plasmids). The phage or plasmids, including the DNA encoding the peptides, were identified and isolated by an affinity enrichment process using immobilized IL-2Rα, IL-2Rβ, IL-2Rγ and the αβ heterodimer. The affinity enrichment process, sometimes called "panning", involves multiple rounds of incubating the phage or plasmids with immobilized receptor, collecting the phage or plasmids that bind to the receptor (along with the accompanying DNA), and producing more of the phage or plasmids (along with accompanying LacI-peptide fusion protein) collected.
# (§2) After several rounds of affinity enrichment, the phage or plasmids and accompanying peptides were examined by ELISA to determine if the peptides bind specifically to the receptor. This assay was carried out in a manner similar to the procedures used in the affinity enrichment process, except that after removing unbound phage (or plasmids), the wells were typically treated with rabbit anti-phage antibody, then with alkaline phosphatase (AP)-conjugated goat anti-rabbit antibody, or with anti-LacI-AP, and then the amount of alkaline phosphatase in each well was determined by standard methods. By comparing test wells with control wells containing an unrelated receptor, one can determine whether a peptide binds to IL-2Rα (or IL-2Rβ, γ, αβ, or βγ) specifically. Peptides found to bind specifically to the receptor were then synthesized as the free peptide (no phage) and tested for binding against (1) immobilized soluble receptor, (2) receptor expressed on the surface of cells, (3) the heterotrimer form of the receptor (i.e., IL-2Rαβγ) expressed on the surface of cells and (4) the two heterodimers IL-2Rαβ and IL-2Rβγ.
# β-subunit = molecular target: T2, β-subunit (Homo sapiens, UniProt P14784); test: Blocking of IL-2 binding to the β-subunit
# T2 construct: was produced in recombinant host cells in a truncated form; made in house; host or cells: recombinant host cells (baculovirus system or PIG-tailed CHO cells named as options)
# T2 sequence (P14784 27-240 limits assumed): T1 sequence (P14784 27-240 limits assumed)
# αβ [1] = molecular target: T3, αβ (Homo sapiens, UniProt P01589+P14784); test: Binding to αβ subunits
# T3 construct: was produced in recombinant host cells in a truncated form; made in house; host or cells: recombinant host cells (baculovirus system or PIG-tailed CHO cells named as options)
# T3 sequence (P01589 22-240 limits assumed): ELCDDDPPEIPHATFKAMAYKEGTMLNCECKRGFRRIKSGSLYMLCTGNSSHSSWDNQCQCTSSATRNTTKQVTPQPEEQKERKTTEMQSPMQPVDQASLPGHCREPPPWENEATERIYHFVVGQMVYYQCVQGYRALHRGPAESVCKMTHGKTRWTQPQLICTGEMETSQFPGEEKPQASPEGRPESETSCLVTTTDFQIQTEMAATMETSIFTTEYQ
# T3 sequence (P14784 27-240 limits assumed): T1 sequence (P14784 27-240 limits assumed)
# Protocol: as §2
# βγ [2] = molecular target: T4, βγ (Homo sapiens, UniProt P14784+P31785); test: Binding to βγ subunits
# T4 construct: was produced in recombinant host cells in a truncated form; made in house; host or cells: recombinant host cells (not fixed)
# T4 sequence (P14784 27-240 limits assumed): T1 sequence (P14784 27-240 limits assumed)
# T4 sequence (P31785 23-262 limits assumed): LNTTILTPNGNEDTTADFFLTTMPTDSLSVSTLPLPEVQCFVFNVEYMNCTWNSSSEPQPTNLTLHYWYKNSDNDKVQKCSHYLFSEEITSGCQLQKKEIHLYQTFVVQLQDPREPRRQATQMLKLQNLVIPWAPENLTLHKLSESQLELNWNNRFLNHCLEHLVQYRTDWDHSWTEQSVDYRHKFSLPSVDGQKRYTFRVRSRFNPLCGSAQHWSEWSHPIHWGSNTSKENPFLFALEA
# Protocol: as §2
# αβ [3] = molecular target: T3, αβ; test: Competition against phage-borne […], αβ heterodimer; assay type: binding; details: free peptide
# βγ [4] = molecular target: T4, βγ; test: Competition against phage-borne […], βγ heterodimer; assay type: binding; details: free peptide
# IL-2Rαβ heterodimer = molecular target: T5, IL-2Rαβ heterodimer (Homo sapiens, UniProt P01589+P14784); test: pVIII 10-mer phage screen / ELISA against IL-2Rαβ heterodimer; assay type: binding; details: pVIII-bound 10-mers on phage
# T5 construct: was produced in recombinant host cells in a truncated form; made in house; host or cells: recombinant host cells (baculovirus system or PIG-tailed CHO cells named as options)
# T5 sequence (P01589 22-240 limits assumed): T3 sequence (P01589 22-240 limits assumed)
# T5 sequence (P14784 27-240 limits assumed): T1 sequence (P14784 27-240 limits assumed)
# Excerpt: as §1, §2
# The immobilized receptor used in the affinity enrichment and ELISA procedures was produced in recombinant host cells in a truncated form. This truncated receptor molecule can be produced in a variety of different forms and host cells. One useful form of receptor is constructed by expressing the protein as a soluble protein in baculovirus transformed host cells using standard methods; another useful form is constructed with a signal peptide for protein secretion and for glycophospholipid membrane anchor attachment. This form of anchor attachment is called "PIG-tailing;"see Caras and Weddell, 3 Mar. 1989, Science 243:1196-1198, and Lin et al., 10 Aug. 1990, Science 249:677-679, each of which is incorporated herein by reference. Using the PIG-tailing system, one can cleave the receptor from the surface of the cells expressing receptor (e.g., transformed Chinese hamster ovary (CHO) cells selected for high level expression of receptor with a cell sorter) with phospholipase C. The cleaved receptor still comprises a carboxy terminal sequence of amino acids, called the "HPAP tail", from the signal for membrane attachment and can be immobilized without further purification.
# The recombinant receptor protein was immobilized by coating the wells of microtiter plates with an anti-HPAP tail antibody, blocking with bovine serum albumin (BSA) in PBS, and then binding recombinant, truncated receptor to the antibody. Using this procedure, one should perform the immobilization reaction in varying concentrations of the receptor to determine the optimum amount for a given preparation, because different preparations of recombinant protein often contain different amounts of the desired protein. […] Otherwise, unblocked antibody can bind undesired phage during the affinity enrichment procedure. […]
# [5] = molecular target: T6, immobilized IL-2Rγ monomer (Homo sapiens, UniProt P31785); test: Phage ELISA against immobilized IL-2Rγ monomer; assay type: binding; details: high receptor density
# T6 construct: was produced in recombinant host cells in a truncated form; made in house; host or cells: recombinant host cells (not fixed)
# T6 sequence (P31785 23-262 limits assumed): T4 sequence (P31785 23-262 limits assumed)
# Protocol: as §2
# (§3) Random pVIII 10-mer and 11-mer libraries were also screened against immobilized IL-2Rγ monomer in a phage ELISA assay at high receptor density. […] These peptides also bound to the βγ-subunit and competed with radiolabelled ligand.
# βγ-subunit [6] = molecular target: T7, βγ-subunit (Homo sapiens, UniProt P14784+P31785); test: Binding to βγ-subunit and competition with radiolabelled ligand
# T7 construct: was produced in recombinant host cells in a truncated form; made in house; host or cells: recombinant host cells (not fixed)
# T7 sequence (P14784 27-240 limits assumed): T1 sequence (P14784 27-240 limits assumed)
# T7 sequence (P31785 23-262 limits assumed): T4 sequence (P31785 23-262 limits assumed)
# Excerpt: as §3
# βγ-subunit [7] = molecular target: T7, βγ-subunit; test: Phage-ELISA competition with phage bearing peptides, βγ-subunit; assay type: binding; details: phage-ELISA assay
# Excerpt: (§4) After several rounds of affinity enrichment, the phage or plasmids and accompanying peptides were examined by ELISA to determine if the peptides bind specifically to the receptor. […] By comparing test wells with control wells containing an unrelated receptor, one can determine whether a peptide binds to IL-2Rα (or IL-2Rβ, γ, αβ, or βγ) specifically.
# Random pVIII 10-mer and 11-mer libraries were also screened against immobilized IL-2Rγ monomer in a phage ELISA assay at high receptor density.
# IL-2Rα = molecular target: T8, IL-2Rα (Homo sapiens, UniProt P01589); test: Phage screen of αβ heterodimer in presence of β-specific peptides: specific binding to IL-2Rα
# T8 construct: was produced in recombinant host cells in a truncated form; made in house; host or cells: recombinant host cells (baculovirus system or PIG-tailed CHO cells named as options)
# T8 sequence (P01589 22-240 limits assumed): T3 sequence (P01589 22-240 limits assumed)
# Protocol: as §2
# The αβ heterodimer was screened in the presence of each of the following peptides, […] (SEQ ID NO:65), […] (SEQ ID NO:66), […] (SEQ ID NO:67), […] (SEQ ID NO:68) and […] (SEQ ID NO:69) under standard conditions. […]
# immobilized IL-2Rα = molecular target: T9, immobilized IL-2Rα (Homo sapiens, UniProt P01589); test: Blocking of IL-2 binding to immobilized IL-2Rα
# T9 construct: was produced in recombinant host cells in a truncated form; made in house; host or cells: recombinant host cells (baculovirus system or PIG-tailed CHO cells named as options)
# T9 sequence (P01589 22-240 limits assumed): T3 sequence (P01589 22-240 limits assumed)
# α subunit = molecular target: T10, α subunit (Homo sapiens, UniProt P01589); test: Phage ELISA competition against phage-bearing […]; assay type: binding; details: phage ELISA format against phage-bearing FVRCTASGCV
# T10 construct: was produced in recombinant host cells in a truncated form; made in house; host or cells: recombinant host cells (baculovirus system or PIG-tailed CHO cells named as options)
# T10 sequence (P01589 22-240 limits assumed): T3 sequence (P01589 22-240 limits assumed)
# Excerpt: as §4
# IL-2Rβ = molecular target: T11, IL-2Rβ (Homo sapiens, UniProt P14784); test: Colony lift procedure with tagged IL-2 receptors; assay type: binding
# T11 construct: tag (kind not specified; detected enzymatically or on X-ray film)
# T11 sequence (P14784 27-240 limits assumed): T1 sequence (P14784 27-240 limits assumed)
# Excerpt: Peptides specific for the IL-2Rα, β and γ subunits were also discovered using a "colony lift" procedure, wherein cells were infected with DNA encoding for random amino acid sequences as described above. The phage was then allowed to grow on arabinose media to induce expression of the encoded peptides. […] The filters were washed and dried, and the tagged colonies were detected enzymatically, or by exposure to X-ray film, to identify those receptors which bound to the immobilized peptide-expressing phage particles.
# Sequences which bound to IL-2Rβ have the general sequence RDCSX81AX82 LGELC, wherein X81 is V, E or D; and X82 is V or A. Preferred sequences are […], […] (SEQ ID NO: ), and […] (SEQ ID NO: ).
compound,measurement,setting,value
CSCC[C@H](N)C(=O)N[C@@H](CC(=O)O)C(=O)N[C@@H](CS)C(=O)N[C@@H](CO)C(=O)N[C@@H](CCC(=O)O)C(=O)N[C@@H](C)C(=O)N[C@H](C(=O)N[C@@H](CC(C)C)C(=O)NCC(=O)N[C@@H](CCC(=O)O)C(=O)N[C@@H](CC(C)C)C(=O)N[C@@H](CS)C(=O)O)C(C)C (H-MDCSEAVLGELC-OH; N-terminus and C-terminus assumed),subunit specificity of clones,immobilized IL-2Rβ,β-specific
same,blocking IL-2 binding to the β-subunit,β-subunit,capable of blocking IL-2 binding
same,binding to αβ subunits,αβ [1],able to bind
same,binding to βγ subunits,βγ [2],able to bind
same,competition against phage-born MDCSEAVLGELC for binding,αβ [3],competitive
same,competition against phage-born MDCSEAVLGELC for binding,βγ [4],competitive
ARSDYGLGAIWP,subunit specificity of clones,immobilized IL-2Rβ,β-specific
ARYGDVGSLV,binding to the αβ heterodimer,IL-2Rαβ heterodimer,bound
same,subunit specificity,IL-2Rαβ heterodimer,specific for the β subunit
CGTQEACFGLL,specific binding to IL-2Rγ,[5],bind to that subunit specifically
same,binding to the βγ-subunit,βγ-subunit [6],bound
same,competition with radiolabelled ligand,βγ-subunit [6]; βγ-subunit,competed
same,competition with phage bearing peptides in binding to the βγ-subunit,βγ-subunit [7],compete
EVICGTDGCW,specific binding to IL-2Rα,IL-2Rα,bound specifically
same,concentration at which IL-2 binding to immobilized IL-2Rα was blocked,immobilized IL-2Rα,330 µM
FVRCTASGCV,competition for binding with respect to the α subunit,α subunit,compete for binding
HCLDMGCTFPVW,subunit specificity of clones,immobilized IL-2Rβ,β-specific
RACRVMPCLPDL,subunit specificity of clones,immobilized IL-2Rβ,β-specific
RDCSDAVLEGLC,binding to IL-2Rβ,IL-2Rβ,bound
RDCSEARLGELC,binding to IL-2Rβ,IL-2Rβ,bound
RDCSVAVLGELC,binding to IL-2Rβ,IL-2Rβ,bound
RWGDVGDMVV,binding to the αβ heterodimer,IL-2Rαβ heterodimer,bound
same,subunit specificity,IL-2Rαβ heterodimer,specific for the β subunit
RYGEVGDLLP,binding to the αβ heterodimer,IL-2Rαβ heterodimer,bound
same,subunit specificity,IL-2Rαβ heterodimer,specific for the β subunit
SGCGRELDWC,binding to the αβ heterodimer,IL-2Rαβ heterodimer,bound
same,subunit specificity,IL-2Rαβ heterodimer,specific for the β subunit
SVRCSASGCV,specific binding to IL-2Rα,IL-2Rα,bound specifically
same,concentration at which IL-2 binding to immobilized IL-2Rα was blocked,immobilized IL-2Rα,110 µM
WDGPGLGEFF,binding to the αβ heterodimer,IL-2Rαβ heterodimer,bound
same,subunit specificity,IL-2Rαβ heterodimer,specific for the β subunit
